# Source: article PMC7828395, “Mapping the DNA-Binding Motif of Scabin Toxin, a Guanine Modifying Enzyme from Streptomyces scabies” (Toxins, 2021)
# System: Nc1nc2c(ncn2[C@@H]2O[C@H](COP(=O)(O)O)[C@@H](O)[C@H]2O)c(=O)[nH]1
# Test: purified protein
# Details: pH 7.9
substance,measurement,value
(Streptomyces scabiei 87.22),K0.5,289 ± 18 µM
same,kcat,>3 s⁻¹
